Bounds are passed on as bounds.

From patent US20040202659A1 (ASAT AG APPLIED SCIENCE AND TECHNOLOGY, published 2004) come the findings set out here.

Experiment [1] addresses T1, PDG-A.
T1 construct: lambda light chain; also called Group A phab clones; Group A autoantibody phab clones
Kind of experiment: specificity assay.

Experiment [2] has as its target T2, PDG-B.
T2 construct: human anti-GPIIb/IIIa Fab, as phab or as biotinylated recombinant Fab; lambda light chain; also called Group B phab clones; Group B antibody phab clones
Kind of experiment: flow cytometry, biotinylated PDG-B on platelets with AI-B phab. Background: A flow cytometer gives signals particle by particle.
Procedure: This was determined by means of flow-cytometric analysis. […] 10,000 events were counted in a FACScan appliance and the mean value of the fluorescence (±SD) was recorded.

The target of experiment [3] is T2, PDG-B. Kind of experiment: specificity assay.

T1 sequence (VH, as listed by the source, chain 1 of 2): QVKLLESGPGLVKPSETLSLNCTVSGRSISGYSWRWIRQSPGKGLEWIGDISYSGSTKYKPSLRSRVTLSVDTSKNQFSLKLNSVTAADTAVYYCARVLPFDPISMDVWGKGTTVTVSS
T1 sequence (VL, as listed by the source, chain 2 of 2): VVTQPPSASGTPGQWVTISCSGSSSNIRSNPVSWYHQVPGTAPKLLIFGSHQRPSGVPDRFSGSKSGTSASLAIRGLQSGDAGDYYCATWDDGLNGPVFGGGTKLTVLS

B1: AI-B38 (Fab, V domains shown)
VH: QVKLLESGAEVKKPGASVKVSCKVSGYTLTELSMHWVRQAPGKGLEWMGGFDPEDGETIYAQKFQGRVTMTEDTSTDTAYMELSSLRSEDTAVYYCETGLRSYNYGRNLDYWGQGTLVTVSS
notes: phab; also called A1-B38
In the case of B1, the binding result in experiment [1] is given as “no binding”. In experiment [2], the “inhibition of the binding of PDG-B to platelets” value (shortened to “inhibition”) is greater than 60%.

B2: AI-B18 (Fab, V domains shown)
VH: QVKLLESGAEVKKPGSSVMVSCKASGGTFSSHTISWVRQAPGQGLEWMGGITPIFGTVNYAQKFQGRVTITADEPTSTAYMELRSLTSDDSGIYYCAREDGTTVPSQPLEFWGQGTRVTVSS
notes: phab; also called A1-B18
With B2, in experiment [1], the binding result is “no binding”. Besides, the “inhibition” value in experiment [2] was greater than 60%.

B3: AI-B40 (Fab, V domains shown)
VH: QVKLLESGAEVKKPGSSVMVSCKASGGTFSSHTISWVRQAPGQGLEWMGGITPIFGTVNYAQKFQGRVTITADEPTSTAYMELRSLTSDDSGIYYCAREDGTTVPSQPLEFWGQGTRVTVSS
notes: phab; also called A1-B40
Take B3: the binding result in experiment [1] was “no binding”.

B4: AI-B34 (Fab, V domains shown)
VH: QVKLLESGAEVKKPGSSVMVSCKASGGTFSSHTISWVRQAPGQGLEWMGGITPIFGTVNYAQKFQGRVTITADEPTSTAYMELRSLTSDDSGIYYCAREDGTTVPSQPLEFWGQGTRVTVSS
notes: phab; also called A1-B34
Consider B4, for which the binding result in experiment [1] was “no binding”.

B5: AI-B14 (Fab, V domains shown)
VH: QVKLLESGGGVVQPGRSLRLSCAASGFTFSDYGMHWVRQAPGKGLEWVAAISYDGSNKYYADSVKGRFSISRDNSNNTLYLQMSTLRAEDTAVYFCARDSETAIAAAGRFDIWGQGTMVTVSS
notes: phab; also called A1-B14; AI-14
Take B5: the binding result in experiment [1] is “no binding”; in experiment [3], “binds”.

B6: AI-B17 (Fab, V domains shown)
VH: QVKLLESGGGVVQPGRSLRLSCAASGFTFSDYGMHWVRQAPGKGLEWVAAISYDGSNKYYADSVKGRFSISRDNSNNTLYLQMSTLRAEDTAVYFCARDSETAIAAAGRFDIWGQGTMVTVSS
notes: phab; also called A1-B17
On to B6, for which the results for the binding result in experiment [1] and in experiment [3] were “no binding” and “binds”, respectively.

B7: AI-B24 (Fab, V domains shown)
VH: QVKLLESGGGLVQPGGSLRLSCSASGFTFNKYAIHWVRQAPGKGLEYVSAISSNGGNTYYADSVKGRFTISRDNSKNTVYLQMSSLRAEDTAVYYCVRGSGSYLGYYFDYWGQGTLVTVSS
VL: VVTQPPSVSVAPRQTATITCGGYKIGSKSVHWYQQKPGQAPVLVVYEDSYRPSEIPERFSGSNSGNMATLTITGVEAGDEADYYCQVWDNTNDQTIFGGGTKLTVLR
notes: phab; also called A1-B24
As for B7, the binding result in experiment [1] is “no binding”. For the same molecule, the “inhibition” value in experiment [2] was greater than 60%.
